From patent US20040072368A1, “Lipoprotein receptor” (priority 2002, published 2004)

Key:
[1] = target: beta-subunit of ATP synthase (F1 domain) on the cell surface of human hepatocytes (human) (UniProt P06576)
[2] = target: beta-subunit of ATP synthase (F1 domain) on the cell surface of human hepatocytes (human) (UniProt P06576); assay: cell-based or functional assay
[3] = target: ectopic ATP synthase of rat liver (rat) (UniProt P10719); assay: cell-based or functional assay
Chain of ectopic ATP synthase of rat liver (rat) (P10719 47-529, chain 1 of 2): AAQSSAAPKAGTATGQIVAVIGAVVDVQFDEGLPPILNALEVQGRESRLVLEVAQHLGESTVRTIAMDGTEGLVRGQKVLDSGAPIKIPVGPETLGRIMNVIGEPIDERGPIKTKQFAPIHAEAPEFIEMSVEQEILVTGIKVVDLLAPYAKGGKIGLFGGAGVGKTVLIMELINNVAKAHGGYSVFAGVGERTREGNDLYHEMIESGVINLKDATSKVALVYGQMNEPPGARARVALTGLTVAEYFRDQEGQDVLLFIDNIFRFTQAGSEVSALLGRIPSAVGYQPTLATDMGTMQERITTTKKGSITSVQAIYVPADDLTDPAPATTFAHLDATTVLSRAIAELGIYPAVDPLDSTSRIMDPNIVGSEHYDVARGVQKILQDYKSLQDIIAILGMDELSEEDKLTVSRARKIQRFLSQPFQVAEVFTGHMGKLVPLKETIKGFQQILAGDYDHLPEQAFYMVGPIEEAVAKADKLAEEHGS
Chain of ectopic ATP synthase of rat liver (rat) (P15999 44-553, chain 2 of 2, further chain): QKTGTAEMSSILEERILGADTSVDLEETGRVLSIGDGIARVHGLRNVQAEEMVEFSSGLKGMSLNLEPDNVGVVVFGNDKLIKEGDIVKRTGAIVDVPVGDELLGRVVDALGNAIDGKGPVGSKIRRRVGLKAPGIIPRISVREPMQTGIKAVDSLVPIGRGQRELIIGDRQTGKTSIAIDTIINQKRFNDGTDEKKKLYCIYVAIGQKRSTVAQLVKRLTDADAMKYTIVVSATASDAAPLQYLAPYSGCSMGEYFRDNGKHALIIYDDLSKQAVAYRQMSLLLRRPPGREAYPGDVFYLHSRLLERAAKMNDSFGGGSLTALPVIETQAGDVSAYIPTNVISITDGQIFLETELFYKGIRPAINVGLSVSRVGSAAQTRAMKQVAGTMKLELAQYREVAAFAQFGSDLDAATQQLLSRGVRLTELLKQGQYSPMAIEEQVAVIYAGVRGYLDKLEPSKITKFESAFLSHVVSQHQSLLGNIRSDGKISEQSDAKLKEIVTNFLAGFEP

Chain of beta-subunit of ATP synthase (F1 domain) on the cell surface of human hepatocytes (human) (P06576 48-529 E274Q limits assumed): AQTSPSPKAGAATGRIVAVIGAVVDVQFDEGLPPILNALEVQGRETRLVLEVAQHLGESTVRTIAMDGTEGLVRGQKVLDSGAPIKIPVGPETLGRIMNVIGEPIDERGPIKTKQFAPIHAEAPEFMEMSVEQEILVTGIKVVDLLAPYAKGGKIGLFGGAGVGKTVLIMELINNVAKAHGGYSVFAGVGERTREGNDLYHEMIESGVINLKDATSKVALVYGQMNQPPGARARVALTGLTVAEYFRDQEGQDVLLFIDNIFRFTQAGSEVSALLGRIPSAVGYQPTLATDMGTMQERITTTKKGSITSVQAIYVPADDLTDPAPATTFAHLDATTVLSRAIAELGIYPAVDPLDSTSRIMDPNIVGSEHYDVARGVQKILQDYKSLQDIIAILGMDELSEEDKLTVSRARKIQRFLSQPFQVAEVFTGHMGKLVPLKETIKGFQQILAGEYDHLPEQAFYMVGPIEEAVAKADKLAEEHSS

- IC50 (read off the curve), 125I-TG-HDL2 internalisation by HepG2 cells, without apoA-I [1]: 8 nM
- [α-32P]-ADP generated from [α-32P]-ATP at the HepG2 cell surface (HPLC), 100 nM IF1 [2]: 48 % decrease
- TG-HDL2 internalisation by perfused rat liver, 45 min, 1 µM IF1 [3]: < 45 % decrease
B1: IF1 protein, natural inhibitor protein of mitochondrial F1-ATPase (protein, UniProt P01096 26-109, looked up, species assumed)
ATPase inhibitor, mitochondrial: GSESGDNVRSSAGAVRDAGGAFGKREQAEEERYFRARAKEQLAALKKHHENEISHHAKEIERLQKEIERHKQSIKKLKQSEDDD
